Assay results reported in patent US20230013244A1 (BioIncept, LLC, priority 2014, published 2023).

Key:
Experiment in all cases: PIF affinity column + LC-MS/MS, CD14+ cell lysate
[1] = molecular target: Lymphocyte-specific protein 1 (human) (UniProt P33241)
Myosin-9 (human) = Myosin-9 (human) (UniProt P35579)
[2] = molecular target: Isoform 2 of Adenylyl cyclase-associated protein 1 (human) (UniProt Q01518)
Coronin-1A (human) = Coronin-1A (human) (UniProt P31146)
[3] = molecular target: Isoform 2 of Heat shock protein HSP 90-alpha (human) (UniProt P07900)
Hornerin (human) = Hornerin (human) (UniProt Q86YZ3)
Hornerin (human), sequence (Q86YZ3 whole entry): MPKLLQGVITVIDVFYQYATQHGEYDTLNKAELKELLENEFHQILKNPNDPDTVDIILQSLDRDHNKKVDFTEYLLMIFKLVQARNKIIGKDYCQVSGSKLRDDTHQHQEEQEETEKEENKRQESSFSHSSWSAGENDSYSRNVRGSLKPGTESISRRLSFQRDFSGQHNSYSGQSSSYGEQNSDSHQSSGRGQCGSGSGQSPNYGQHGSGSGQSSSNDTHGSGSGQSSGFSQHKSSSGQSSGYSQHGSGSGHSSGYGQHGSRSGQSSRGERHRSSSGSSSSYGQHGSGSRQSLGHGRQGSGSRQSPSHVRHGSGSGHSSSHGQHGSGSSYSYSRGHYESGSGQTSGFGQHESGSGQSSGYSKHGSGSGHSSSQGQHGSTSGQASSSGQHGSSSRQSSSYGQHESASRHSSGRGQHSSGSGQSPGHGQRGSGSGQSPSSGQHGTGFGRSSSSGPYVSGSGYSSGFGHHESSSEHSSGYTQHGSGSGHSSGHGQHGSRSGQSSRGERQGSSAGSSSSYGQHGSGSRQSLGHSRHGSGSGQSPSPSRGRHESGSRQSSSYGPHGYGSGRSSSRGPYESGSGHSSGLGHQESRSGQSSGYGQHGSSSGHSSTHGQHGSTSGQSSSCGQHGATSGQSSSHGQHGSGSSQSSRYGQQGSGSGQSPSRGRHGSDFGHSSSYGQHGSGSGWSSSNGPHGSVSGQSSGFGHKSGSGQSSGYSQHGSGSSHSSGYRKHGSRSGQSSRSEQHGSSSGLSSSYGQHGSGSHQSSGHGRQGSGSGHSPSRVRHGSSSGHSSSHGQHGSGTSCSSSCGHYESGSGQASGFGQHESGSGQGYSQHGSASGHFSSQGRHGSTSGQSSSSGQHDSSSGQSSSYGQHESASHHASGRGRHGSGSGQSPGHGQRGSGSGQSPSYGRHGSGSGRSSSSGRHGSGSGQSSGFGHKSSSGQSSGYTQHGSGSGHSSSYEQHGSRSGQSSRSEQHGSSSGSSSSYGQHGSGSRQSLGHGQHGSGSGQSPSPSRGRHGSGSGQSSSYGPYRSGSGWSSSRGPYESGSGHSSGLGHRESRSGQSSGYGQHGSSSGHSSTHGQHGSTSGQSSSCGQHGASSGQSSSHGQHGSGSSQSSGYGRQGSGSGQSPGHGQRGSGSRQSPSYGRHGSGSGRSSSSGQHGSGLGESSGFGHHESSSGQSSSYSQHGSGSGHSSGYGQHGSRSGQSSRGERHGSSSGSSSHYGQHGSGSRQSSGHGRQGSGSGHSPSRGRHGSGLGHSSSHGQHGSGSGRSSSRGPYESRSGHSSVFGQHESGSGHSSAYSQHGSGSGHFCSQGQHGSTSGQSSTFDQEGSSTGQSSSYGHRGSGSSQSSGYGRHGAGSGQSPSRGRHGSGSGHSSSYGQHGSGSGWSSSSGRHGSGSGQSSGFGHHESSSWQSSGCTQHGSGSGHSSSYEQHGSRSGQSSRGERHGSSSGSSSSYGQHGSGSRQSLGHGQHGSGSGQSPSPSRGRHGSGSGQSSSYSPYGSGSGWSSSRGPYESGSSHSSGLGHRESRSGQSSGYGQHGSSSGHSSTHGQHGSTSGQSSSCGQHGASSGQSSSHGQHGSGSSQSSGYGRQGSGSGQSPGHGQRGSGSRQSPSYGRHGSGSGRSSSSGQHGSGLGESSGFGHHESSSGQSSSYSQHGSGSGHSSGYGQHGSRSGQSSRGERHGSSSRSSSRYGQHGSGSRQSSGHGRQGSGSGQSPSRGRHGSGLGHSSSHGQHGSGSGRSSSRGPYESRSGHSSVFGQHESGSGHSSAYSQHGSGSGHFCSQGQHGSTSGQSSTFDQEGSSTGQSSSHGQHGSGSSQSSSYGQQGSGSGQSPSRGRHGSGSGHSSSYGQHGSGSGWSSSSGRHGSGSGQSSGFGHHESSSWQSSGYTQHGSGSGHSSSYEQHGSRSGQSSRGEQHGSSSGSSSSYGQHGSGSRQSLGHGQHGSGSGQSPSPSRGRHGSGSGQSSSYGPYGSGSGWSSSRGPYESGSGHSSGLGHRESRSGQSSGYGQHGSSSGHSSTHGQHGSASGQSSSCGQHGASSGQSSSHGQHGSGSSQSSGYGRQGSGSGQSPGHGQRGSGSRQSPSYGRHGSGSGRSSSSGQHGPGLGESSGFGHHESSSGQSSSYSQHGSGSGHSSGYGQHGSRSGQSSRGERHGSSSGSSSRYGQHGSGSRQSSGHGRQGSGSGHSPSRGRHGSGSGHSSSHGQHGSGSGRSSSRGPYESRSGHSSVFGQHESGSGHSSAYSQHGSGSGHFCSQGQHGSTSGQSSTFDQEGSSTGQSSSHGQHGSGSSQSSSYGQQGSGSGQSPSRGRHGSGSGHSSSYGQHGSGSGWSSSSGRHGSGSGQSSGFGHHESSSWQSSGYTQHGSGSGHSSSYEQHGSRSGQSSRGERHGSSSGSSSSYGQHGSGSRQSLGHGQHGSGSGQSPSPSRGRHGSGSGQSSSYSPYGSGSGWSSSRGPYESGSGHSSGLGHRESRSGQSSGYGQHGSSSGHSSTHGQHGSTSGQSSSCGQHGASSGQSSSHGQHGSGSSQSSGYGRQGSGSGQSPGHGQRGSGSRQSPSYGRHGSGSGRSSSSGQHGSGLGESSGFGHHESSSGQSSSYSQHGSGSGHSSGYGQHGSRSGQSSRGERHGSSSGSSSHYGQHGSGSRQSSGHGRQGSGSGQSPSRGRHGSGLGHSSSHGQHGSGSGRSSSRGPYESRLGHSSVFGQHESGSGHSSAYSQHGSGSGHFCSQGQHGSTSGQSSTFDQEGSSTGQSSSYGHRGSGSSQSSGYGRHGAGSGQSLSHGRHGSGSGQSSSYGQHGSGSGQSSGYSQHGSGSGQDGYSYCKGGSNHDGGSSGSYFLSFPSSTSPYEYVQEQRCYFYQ

[4] = molecular target: Tropomyosin alpha-4 chain (human) (UniProt P67936)
Tropomyosin alpha-4 chain (human), sequence (P67936 2-248 limits assumed): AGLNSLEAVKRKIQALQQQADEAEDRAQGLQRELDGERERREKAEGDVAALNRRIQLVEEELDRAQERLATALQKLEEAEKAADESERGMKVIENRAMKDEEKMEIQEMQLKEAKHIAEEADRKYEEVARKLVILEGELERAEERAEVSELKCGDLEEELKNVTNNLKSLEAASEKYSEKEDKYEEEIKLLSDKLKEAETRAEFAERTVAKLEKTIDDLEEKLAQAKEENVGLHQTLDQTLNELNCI

[5] = molecular target: Isoform 2 of Ras suppressor protein 1 (human) (UniProt Q15404)
Isoform 2 of Ras suppressor protein 1 (human), sequence (Q15404 54-277 limits assumed): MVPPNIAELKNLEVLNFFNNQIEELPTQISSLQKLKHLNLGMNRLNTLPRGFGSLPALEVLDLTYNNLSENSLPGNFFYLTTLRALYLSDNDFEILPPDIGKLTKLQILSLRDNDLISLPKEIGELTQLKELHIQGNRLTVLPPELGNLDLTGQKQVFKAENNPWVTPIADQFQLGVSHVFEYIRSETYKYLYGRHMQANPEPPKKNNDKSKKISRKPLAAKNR

[6] = molecular target: Bridging integrator 2 (human) (UniProt Q9UBW5)
Endoplasmin (human) = Endoplasmin (human) (UniProt P14625)
Endoplasmin (human), sequence (P14625 22-803 limits assumed): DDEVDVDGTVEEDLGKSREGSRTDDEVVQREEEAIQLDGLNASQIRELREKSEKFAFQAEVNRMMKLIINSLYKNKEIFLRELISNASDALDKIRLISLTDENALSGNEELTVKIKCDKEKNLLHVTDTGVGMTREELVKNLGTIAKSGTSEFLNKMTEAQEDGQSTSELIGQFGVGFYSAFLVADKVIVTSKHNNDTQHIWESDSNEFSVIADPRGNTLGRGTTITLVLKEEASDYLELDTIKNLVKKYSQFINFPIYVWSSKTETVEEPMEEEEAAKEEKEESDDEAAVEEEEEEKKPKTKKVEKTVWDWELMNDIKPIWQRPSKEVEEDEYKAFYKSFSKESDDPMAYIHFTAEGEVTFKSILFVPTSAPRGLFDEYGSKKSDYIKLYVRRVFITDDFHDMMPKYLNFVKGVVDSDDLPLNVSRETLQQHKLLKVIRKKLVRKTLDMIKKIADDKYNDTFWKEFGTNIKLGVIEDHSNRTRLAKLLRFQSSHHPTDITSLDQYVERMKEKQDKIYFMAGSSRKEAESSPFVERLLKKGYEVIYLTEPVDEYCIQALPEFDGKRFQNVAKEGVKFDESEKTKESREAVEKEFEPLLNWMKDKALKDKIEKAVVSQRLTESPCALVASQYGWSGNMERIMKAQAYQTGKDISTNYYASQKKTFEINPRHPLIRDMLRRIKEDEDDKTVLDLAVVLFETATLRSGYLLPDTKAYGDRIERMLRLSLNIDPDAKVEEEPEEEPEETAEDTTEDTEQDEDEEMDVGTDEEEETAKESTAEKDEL

[7] = molecular target: 78 kDa glucose-regulated protein (human) (UniProt P11021)
[8] = molecular target: Tropomyosin alpha-3 chain (human) (UniProt P06753)
Plastin-2 (human) = Plastin-2 (human) (UniProt P13796)
[9] = molecular target: Actinin alpha 1 isoform 3 (human) (UniProt P12814)
[10] = molecular target: 14-3-3 protein eta (human) (UniProt Q04917)
Vimentin (human) = Vimentin (human) (UniProt P08670)
Vimentin (human), sequence (P08670 2-466 limits assumed): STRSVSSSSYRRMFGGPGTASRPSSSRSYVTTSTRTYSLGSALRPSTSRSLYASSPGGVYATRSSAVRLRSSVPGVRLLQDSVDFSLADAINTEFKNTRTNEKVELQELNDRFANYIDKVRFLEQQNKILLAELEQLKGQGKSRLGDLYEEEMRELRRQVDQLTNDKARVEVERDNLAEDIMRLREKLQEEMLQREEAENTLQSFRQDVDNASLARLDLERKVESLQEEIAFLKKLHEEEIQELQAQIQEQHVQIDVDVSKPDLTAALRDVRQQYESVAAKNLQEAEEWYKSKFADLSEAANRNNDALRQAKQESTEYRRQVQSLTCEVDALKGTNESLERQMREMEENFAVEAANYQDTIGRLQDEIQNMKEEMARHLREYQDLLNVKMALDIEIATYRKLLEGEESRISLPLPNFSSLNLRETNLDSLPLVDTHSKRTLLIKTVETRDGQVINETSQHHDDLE

[11] = molecular target: Actin, cytoplasmic 2 (human) (UniProt P63261)
[12] = molecular target: Tubulin alpha-4A chain (human) (UniProt P68366)
Annexin A1 (human) = Annexin A1 (human) (UniProt P04083)
Thymosin alpha-1 (human) = Thymosin alpha-1 (human) (UniProt P06454)
[13] = molecular target: 14-3-3 protein theta (human) (UniProt P27348)
[14] = molecular target: Nuclear autoantigenic sperm protein (human) (UniProt P49321)
[15] = molecular target: Histone-binding protein RBBP7 (human) (UniProt E9PC52)
Histone-binding protein RBBP7 (human), sequence (E9PC52 entry or part of it limits assumed, form in doubt): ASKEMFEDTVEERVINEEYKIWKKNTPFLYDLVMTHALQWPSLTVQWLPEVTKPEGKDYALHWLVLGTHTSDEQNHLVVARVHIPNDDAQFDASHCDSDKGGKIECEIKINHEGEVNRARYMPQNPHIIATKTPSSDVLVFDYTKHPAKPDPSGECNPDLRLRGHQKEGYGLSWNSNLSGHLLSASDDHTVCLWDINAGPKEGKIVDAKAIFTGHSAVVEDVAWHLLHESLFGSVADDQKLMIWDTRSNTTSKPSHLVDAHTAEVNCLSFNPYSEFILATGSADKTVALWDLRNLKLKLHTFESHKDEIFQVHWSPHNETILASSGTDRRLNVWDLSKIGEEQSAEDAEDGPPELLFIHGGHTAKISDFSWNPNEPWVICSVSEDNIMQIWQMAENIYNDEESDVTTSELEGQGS

Filamin-A (human) = Filamin-A (human) (UniProt P21333)
[16] = molecular target: Heat shock protein HSP 90-beta (human) (UniProt P08238)
[17] = molecular target: Isoform Short of 14-3-3 protein beta/alpha (human) (UniProt P31946)
[18] = molecular target: Protein disulfide-isomerase A4 (human) (UniProt P13667)
Calreticulin (human) = Calreticulin (human) (UniProt P27797)
Matrin-3 (human) = Matrin-3 (human) (UniProt A8MXP9)
Talin-1 (human) = Talin-1 (human) (UniProt Q9Y490)

“PIF-resin (PIF15 affinity ligand on agarose) (peptide)” was tested, and the Inject 1 [1] was 4, the Inject 3 [1] was 1 and the Ave (Myosin-9 (human)) was 10. The Inject 1 (Myosin-9 (human)) was 11, the Inject 2 (Myosin-9 (human)) was 9 and the Inject 3 (Myosin-9 (human)) was 10. It also gave an Inject 1 [2] of 4, an Inject 3 (Coronin-1A (human)) of 1 and an Ave [3] of 1. The Inject 1 [3] was 1, the Inject 3 [3] was 1 and the Ave (Hornerin (human)) was 1. The Inject 1 (Hornerin (human)) was 1, the Inject 2 (Hornerin (human)) was 0 and the Ave [4] was 8. The Inject 1 [4] was 8, the Inject 3 [4] was 8 and the Ave [5] was 1. It also gave an Inject 1 [5] of 0, an Inject 2 [5] of 1 and an Ave [6] of 1. It also gave an Inject 1 [6] of 1, an Inject 3 [6] of 0 and an Ave (Endoplasmin (human)) of 1. The Inject 1 (Endoplasmin (human)) was 0, the Inject 3 (Endoplasmin (human)) was 1 and the Ave [7] was 4. It also gave an Ave [8] of 4, an Inject 1 [8] of 4 and an Inject 3 [8] of 5. For the same substance, the Ave (Plastin-2 (human)) was 1, the Inject 1 (Plastin-2 (human)) was 1 and the Inject 2 (Plastin-2 (human)) was 1. The Ave [9] was 4, the Inject 1 [9] was 5 and the Inject 2 [9] was 4. For the same substance, the Ave [10] was 1, the Inject 1 [10] was 1 and the Inject 2 [10] was 1. For the same substance, the Ave (Vimentin (human)) was 10, the Inject 1 (Vimentin (human)) was 9 and the Inject 2 (Vimentin (human)) was 11. The Inject 3 (Vimentin (human)) was 9, the Ave [11] was 7 and the Inject 1 [11] was 6. It also gave an Inject 2 [11] of 7, an Inject 3 [11] of 7 and an Inject 3 [12] of 1. The Ave (Annexin A1 (human)) was 1, the Inject 1 (Annexin A1 (human)) was 0 and the Inject 2 (Annexin A1 (human)) was 0. For the same substance, the Ave (Thymosin alpha-1 (human)) was 5, the Inject 1 (Thymosin alpha-1 (human)) was 5 and the Inject 2 (Thymosin alpha-1 (human)) was 5. It also gave an Inject 3 (Thymosin alpha-1 (human)) of 4, an Ave [13] of 1 and an Inject 1 [13] of 1. It also gave an Inject 2 [13] of 1, an Ave [14] of 1 and an Inject 2 [14] of 0. For the same substance, the Inject 3 [14] was 1, the Ave [15] was 1 and the Inject 2 [15] was 0. It also gave an Inject 3 [15] of 1, an Ave (Filamin-A (human)) of 5 and an Inject 1 (Filamin-A (human)) of 5. It also gave an Ave [16] of 1, an Inject 2 [16] of 1 and an Inject 3 [16] of 1. For the same substance, the Inject 3 [17] was 4, the Inject 1 [18] was 4 and the Inject 2 [18] was 1. For the same substance, the Inject 2 (Calreticulin (human)) was 4, the Ave (Matrin-3 (human)) was 1 and the Inject 1 (Matrin-3 (human)) was 1. For the same substance, the Inject 3 (Matrin-3 (human)) was 1, the Inject 1 (Talin-1 (human)) was 5 and the Inject 3 (Talin-1 (human)) was 8.
